System: brain regions of mice (C57BL/6J)
Experiment: In vivo imaging of fluorescently labelled GLP-1 Fab fusion proteins in brain (LSFM)
Settings: single i.v. dose 120 nmol/kg, 6 hours
Procedure: The two fusion proteins include one and the same GLP-1 receptor agonist compound but differ in the Fab part. […] The study is an acute study in mice.
The mice were anesthetised with isoflurane 6 hours (“6H”) following administration of compound and euthanised by transcardiac perfusion with 10 ml heparinised (10 U/ml) saline followed by 10 ml 10% neutral buffered formalin (NBF). Brains were removed and immersed into 10% NBF and stored at 4° C. O/N until further processed.
The brains were dehydrated and saturated in dibenzyl ether (DBE) to minimise scattering of light during scanning by removal of water, and by matching of the refractive index. Brain tissue was dehydrated at room temperature in graded tetrahydrofuran (THF) diluted in demineralised H2O (w/v) 50/80/96/99%/2×100% 6-12 hours for each step. The brains were then cleared at room temperature in 3×DBE for 6-12 hours each step.
Brain samples were scanned using an UltraMicroscope II LSFM system (Lavision Biotec, Bielefeld, Germany) in 10.32 μm isotropic resolution. Data acquisition was performed using a 620/60 nm excitation filter and 680/30 nm emission filter for imaging autofluorescence, and a 710/75 nm excitation filter and 780/40 nm emission filter for imaging specific signals.
Images are single plane images of a z plane (2D). Spectral unmixing was performed to minimise the contribution of tissue auto-fluorescence in the images of the specific signals presented. The unmixing was carried out in Imaris (Release 7.6.5, Zurich, Switzerland) on imported tiff-files. The estimated auto-fluorescence contribution in the specific channel was calculated and removed based on ratios of voxel intensities between selected voxels in the unspecific recording and the corresponding voxels in the specific channel. A ratio was computed for 40 sets of voxels selected based on the histogram of the unspecific recording. The unmixing algorithm was written in Matlab (Release 2012b, Math Works, Natick, Massachusetts, United States) and applied as a XT-plugin in Imaris.
Images were registered to a common reference atlas space for visualisation and quantification using the Elastix software library version 4 (Klein, Stefan, et al. “Elastix: a toolbox for intensity-based medical image registration.” IEEE transactions on medical imaging 29.1 (2010): 196-205). A source image IS(x) was registered to the target atlas image IT(x) by finding a coordinate transformation T(x) that made IS(T(x)) spatially aligned with IT(x). […] Quantification was performed by summation of the unmixed intensity value of all voxels within the individual brain regions, indicating the total fluorescence signal from the compounds in these regions. […] The total signal thus indicates the total fluorescence signal from the compounds in these regions. […]

[1] = active vs inactive TfR compound

B1: Example 8: VivoTag750 fluorescence labelled GLP-1 anti TfR-Fab fusion protein of Example 6 (conjugate)
chain: HGEGTFTSDVSSYLEEQAAREFIAWLVKGRPGGGSGGGSGGGSGGGSDIQMTQSPASLSASLEEIVTITCQASQDIGNWLAWYQQKPGKSPQLLIYGATSLADGVPSRFSGSRSGTQFSLKISRVQVEDIGIYYCLQAYNTPWTFGGGTKLELKRADAAPTVSIFPPSSEQLTSGGASVVCFLNNFYPKDINVKWKIDGSERQNGVLNSWTDQDSKDSTYSMSSTLTLTKDEYERHNSYTCEATHKTSTSPIVKSFNRNECEVQLVESGGGLVQPGNSLTLSCVASGFTFSNYGMHWIRQAPKKGLEWIAMIYYDSSKMNYADTVKGRFTISRDNSKNTLYLEMNSLRSEDTAMYYCAVPTSHYVVDVWGQGVSVTVSSAKTTPPSVYPLAPGSAAQTNSMVTLGCLVKGYFPEPVTVTWNSGSLSSGVHTFPAVLQSDLYTLSSSVTVPSSTWPSETVTCNVAHPASSTKVDKKIVPRDCGHHHHHHHHHH
modifications: VivoTag750 fluorescent label; GLP-1 anti TfR-fab fusion protein; DISULFID (70)..(135); DISULFID (181)..(241); DISULFID (261)..(481); DISULFID (283)..(357); DISULFID (407)..(461)
total fluorescence signal in brain regions that do not express the GLP-1R (FIG. 16D) [1]: slightly higher
total fluorescence signal in circumventricular organs expressing the GLP-1R but devoid of a BBB (FIG. 16B) [1]: slightly higher
total fluorescence signal in brain regions expressing the GLP-1R (FIG. 16A) (compared to GLP-1-Inactive TfR): higher
total fluorescence signal in brain structures expressing the GLP-1R which are protected by the BBB (FIG. 16C) (compared to GLP-1-Inactive TfR): highly increased

— patent publication US11753455B2, “Compounds for treatment of obesity” (Novo Nordisk A/S, priority 2018, dated 2023)
